Here are results for one molecule from US20070166299A1, “TREATMENT FOR EMBOLIC STROKE” (priority 2005, published 2007).

Entries after “also recorded” stand apart in the source; their conditions may differ.

The test system of test [1] is small clot embolic strokes in rabbits. The conditions noted are these: previous studies; cited from earlier work.
Test [2] has the same test system. The experiment in a line: rabbit small clot embolic stroke model (RSCEM), quantal analysis of behavior. In kind it is in vivo. The source says: The invention used a rabbit small clot embolic stroke model (RSCEM) that reproduces many facets of human AIS including a well-defined clinical endpoint. The RSCEM utilizes administration of a suspension of small blood clots to induce strokes, and behavioral deficits that can be measured quantitatively. Moreover, the RSCEM is useful to conduct studies testing the effects of single drugs or drug combinations such as a neuroprotective agent (e.g., NXY-059) plus a thrombolytic (Tenecteplase, Alteplase, Desmoteplase and the like). Since it is likely that a drug combination will be used for patient management it is important to determine whether there are any interactions (positive or negative) between the compounds when administered following embolic strokes.
Methods: Male New Zealand white rabbits were anesthetized using halothane (5% induction, 2% maintenance by facemask), the bifurcation of the right carotid artery was exposed and the external carotid was ligated just distal to the bifurcation, where a catheter was inserted into the common carotid and secured with ligatures. The incision was closed around the catheter with the distal ends left accessible outside the neck; the catheter was filled with heparinized saline and plugged with an injection cap. Rabbits were allowed to recover from anesthesia for a minimum of 3 h until they awoke and behaved normally.
For the RSCEM, microclots were prepared from blood drawn from a donor rabbit and allowed to clot at 37° C. All rabbits in the study received injections of the same sized microclots. For embolization, clot particles were rapidly injected through the carotid catheter and both the syringe and catheter were flushed with 5 ml of normal saline. […]
Quantal Dose-Response Analysis: For the RSCEM, a quantal dose-response data analysis technique was used. […] The P50 values are then calculated. […] The data were analyzed using the t-test, which included the Bonferroni correction where appropriate. […]

B1: Tenecteplase: thrombolytic agent supplied by Genentech as a lyophilized cake, the formulation used clinically (protein, UniProt P00750 36-562, looked up, variant T103N N117Q K296A H297A R298A R299A)
Tissue-type plasminogen …: SYQVICRDEKTQMIYQQHQSWLRPVLRSNRVEYCWCNSGRAQCHSVPVKSCSEPRCFNGGTCQQALYFSDFVCQCPEGFAGKCCEIDTRATCYEDQGISYRGNWSTAESGAECTNWQSSALAQKPYSGRRPDAIRLGLGNHNYCRNPDRDSKPWCYVFKAGKYSSEFCSTPACSEGNSDCYFGNGSAYRGTHSLTESGASCLPWNSMILIGKVYTAQNPSAQALGLGKHNYCRNPDGDAKPWCHVLKNRRLTWEYCDVPSCSTCGLRQYSQPQFRIKGGLFADIASHPWQAAIFAAAAASPGERFLCGGILISSCWILSAAHCFQERFPPHHLTVILGRTYRVVPGEEEQKFEVEKYIVHKEFDDDTYDNDIALLQLKSDSSRCAQESSVVRTVCLPPADLQLPDWTECELSGYGKHEALSPFYSERLKEAHVRLYPSSRCTSQHLLNRTVTDNMLCAGDTRSGGPQANLHDACQGDSGGPLVCLNDGRMTLVGIISWGLGCGQKDVPGVYTKVTNYLDWIRDNMRP
As to B1, in test [1], the therapeutic window was 3 h. For the same molecule, in test [2] (Tenecteplase 0.9 mg/kg IV bolus, 1 hour following embolization), the P50 turned out to be 2.76 ± 0.37 mg. The “increase of P50 over control” value in test [2] (Tenecteplase 0.9 mg/kg, 1 hour following embolization) is 130%. Besides, in test [2] (Tenecteplase 0.9 mg/kg, 6 hours following embolization), the “P50 compared to control” value is listed as “did not increase the P50 compared to control; also recorded: neither Tenecteplase, nor NXY-059, significantly (p>0.05) affect P50 values”.
